Measured values from US20190225669A1.
One block for each binder: values may come before it.

Legend:
Conditions in all cases: remark: other sources report otherwise
BMP7, P18075 = target: T1, BMP7, P18075; test: Biacore SPR
T1 chain: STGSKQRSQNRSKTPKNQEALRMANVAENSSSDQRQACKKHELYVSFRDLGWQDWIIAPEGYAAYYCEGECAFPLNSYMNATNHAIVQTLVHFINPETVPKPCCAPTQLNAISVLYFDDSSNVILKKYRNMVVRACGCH

GDF8, O14793 [1] = test: Biacore SPR
GDF8, O14793 [2] = test: Biacore SPR; † very low signal

Sequence of GDF8, O14793 (O14793 267-375 limits assumed): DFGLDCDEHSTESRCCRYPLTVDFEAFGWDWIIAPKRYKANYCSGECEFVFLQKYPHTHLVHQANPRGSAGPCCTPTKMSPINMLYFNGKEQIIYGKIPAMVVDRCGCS

- Kd (BMP7, P18075): 15 nM
- koff (BMP7, P18075): 0.018 s⁻¹
- kon (BMP7, P18075): 1.2e+06 M⁻¹ s⁻¹
B1: ALK3-Fc homodimer, P36894 24-152 (Fc fusion, UniProt P36894 24-152, looked up, not shown: a dimerising Fc or GST)
chain: QNLDSMLHGTGMKSDSDQKKSENGVTLAPEDTLPFLKCYCSGHCPDDAINNTCITNGHCFAIIEEDDQGETTLASGCMKYEGSDFQCKDSPKAQLRRTIECCRTNLCNQYLQPTLPPVVIGPFFDGSIR

- koff (GDF8, O14793 [1]): 0.0019 s⁻¹
- kon (GDF8, O14793 [1]): 130000 M⁻¹ s⁻¹
- Kd (GDF8, O14793 [2]): 15 nM
B2: ALK4-Fc homodimer, P36896 24-126 (Fc fusion, UniProt P36896 24-126, looked up, not shown: a dimerising Fc or GST)
chain: SGPRGVQALLCACTSCLQANYTCETDGACMVSIFNLDGMEHHVRTCIPKVELVPAGKPFYCLSSEDLRNTHCCYTDYCNRIDLRVPSGHLKEPEHPSMWGPVE
